Assay results: US20050074401A1
One block for each substance: values may come before it.

Tests used:
[1] = biological target: recombinant ED-B domain of fibronectin, conjugated to Sepharose (UniProt P02751); experiment: immunoreactivity of the labelled product (percent bound to ED-B Sepharose column, assay as in P-0168)
[2] = biological target: recombinant ED-B domain of fibronectin, conjugated to Sepharose (UniProt P02751); experiment: percent of 125I-labelled antibody bound to ED-B Sepharose column, before injection
[3] = biological target: recombinant ED-B domain of fibronectin, conjugated to Sepharose (UniProt P02751); experiment: ED-B Sepharose column on plasma 72 h after i.v. injection of 125I-antibody, normalised to value before injection
[4] = biological target: recombinant ED-B domain of fibronectin, conjugated to Sepharose (UniProt P02751); experiment: ED-B Sepharose column on plasma 144 h after i.v. injection of 125I-antibody, normalised to value before injection
[5] = biological target: recombinant ED-B domain of fibronectin, conjugated to Sepharose (UniProt P02751); experiment: ED-B Sepharose column on plasma 6 h after i.v. injection of 125I-antibody, normalised to value before injection
[6] = biological target: recombinant ED-B domain of fibronectin, conjugated to Sepharose (UniProt P02751); experiment: ED-B Sepharose column on plasma 24 h after i.v. injection of 125I-antibody, normalised to value before injection
[7] = biological target: recombinant ED-B domain of fibronectin, conjugated to Sepharose (UniProt P02751); experiment: ED-B Sepharose column on plasma 3 h after i.v. injection of 125I-antibody, normalised to value before injection
[8] = biological target: recombinant ED-B domain of fibronectin, conjugated to Sepharose (UniProt P02751); experiment: ED-B Sepharose column on plasma 48 h after i.v. injection of 125I-antibody, normalised to value before injection
[9] = biological target: recombinant ED-B domain of fibronectin, conjugated to Sepharose (UniProt P02751); experiment: immunoreactivity of the labelled product, chloramine-T preparation (percent bound to ED-B Sepharose column, assay as in P-0168)
[10] = biological target: recombinant ED-B domain of fibronectin, conjugated to Sepharose (UniProt P02751); experiment: immunoreactivity of the labelled product, Iodogen preparation (percent bound to ED-B Sepharose column, assay as in P-0168)

radioiodinated (125I) L19-SIP, sequence (VH): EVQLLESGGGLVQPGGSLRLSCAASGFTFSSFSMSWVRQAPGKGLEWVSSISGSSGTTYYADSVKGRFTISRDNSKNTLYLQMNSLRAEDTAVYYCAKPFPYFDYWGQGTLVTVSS
radioiodinated (125I) L19-SIP, sequence (VL): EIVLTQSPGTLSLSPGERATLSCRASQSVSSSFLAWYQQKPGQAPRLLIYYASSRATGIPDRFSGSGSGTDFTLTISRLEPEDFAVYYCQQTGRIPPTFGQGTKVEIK
radioiodinated (125I) scFv(L19)2, sequence (VH): as the sequence (VH) above
radioiodinated (125I) scFv(L19)2, sequence (VL): as the sequence (VL) above
radioiodinated (125I) L19-IgG1, sequence (VH): as the sequence (VH) above
radioiodinated (125I) L19-IgG1, sequence (VL): as the sequence (VL) above
recombinant ED-B domain of fibronectin, conjugated to Sepharose, sequence (P02751 1266-1356 limits assumed): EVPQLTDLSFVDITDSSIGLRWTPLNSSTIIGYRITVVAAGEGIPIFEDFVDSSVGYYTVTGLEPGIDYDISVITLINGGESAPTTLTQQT
I-131-L19-SIP, sequence (VH): as the sequence (VH) above
I-131-L19-SIP, sequence (VL): as the sequence (VL) above
In-111-MX-DTPA-ε-HN(Lys)-L19-SIP, sequence (VH): as the sequence (VH) above
In-111-MX-DTPA-ε-HN(Lys)-L19-SIP, sequence (VL): as the sequence (VL) above
(3-(4-hydroxy-3-[131I]iodo-phenyl)-propionate)-L19-SIP, sequence (VH): as the sequence (VH) above
(3-(4-hydroxy-3-[131I]iodo-phenyl)-propionate)-L19-SIP, sequence (VL): as the sequence (VL) above
In-111-MX-DTPA-Maleimide-S(Cys)-L19-SIP-R (R=reduced), sequence (VH): as the sequence (VH) above
In-111-MX-DTPA-Maleimide-S(Cys)-L19-SIP-R (R=reduced), sequence (VL): as the sequence (VL) above
Re-188-L19-SIP, sequence (VH): as the sequence (VH) above
Re-188-L19-SIP, sequence (VL): as the sequence (VL) above
I-123-L19-SIP, sequence (VH): as the sequence (VH) above
I-123-L19-SIP, sequence (VL): as the sequence (VL) above
Tc-99m-L19-SIP, sequence (VH): as the sequence (VH) above
Tc-99m-L19-SIP, sequence (VL): as the sequence (VL) above
In-111-DOTA-C-Benzyl-p-NCS-ε-HN(Lys)-L19-SIP, sequence (VH): as the sequence (VH) above
In-111-DOTA-C-Benzyl-p-NCS-ε-HN(Lys)-L19-SIP, sequence (VL): as the sequence (VL) above
I-124-L19-SIP, sequence (VH): as the sequence (VH) above
I-124-L19-SIP, sequence (VL): as the sequence (VL) above
Y-88-MX-DTPA-ε-HN(Lys)-L19-SIP, sequence (VH): as the sequence (VH) above
Y-88-MX-DTPA-ε-HN(Lys)-L19-SIP, sequence (VL): as the sequence (VL) above
Tc-99m-MAG2-ε-HN(Lys)-L19-SIP, sequence (VH): as the sequence (VH) above
Tc-99m-MAG2-ε-HN(Lys)-L19-SIP, sequence (VL): as the sequence (VL) above
Lu-177-DOTA-C-Benzyl-p-NCS-ε-HN(Lys)-L19-SIP, sequence (VH): as the sequence (VH) above
Lu-177-DOTA-C-Benzyl-p-NCS-ε-HN(Lys)-L19-SIP, sequence (VL): as the sequence (VL) above

Immunoreactivity [2]: > 90%
Immunoreactivity (I), % of the value before i.v. injection [3]: 9%
Immunoreactivity (I), % of the value before i.v. injection [4]: 4%
Immunoreactivity (I), % of the value before i.v. injection [5]: 32%
Immunoreactivity (I), % of the value before i.v. injection [6]: 27%
Immunoreactivity (I), % of the value before i.v. injection [7]: 36%
Immunoreactivity (I), % of the value before i.v. injection [8]: 14%
Substance: radioiodinated (125I) scFv(L19)2

Immunoreactivity [1]: 75.1%
Substance: In-111-DOTA-C-Benzyl-p-NCS-ε-HN(Lys)-L19-SIP (from UniProt P01854 319-426) (antibody)

Immunoreactivity [1]: 88.5%
Substance: In-111-MX-DTPA-Maleimide-S(Cys)-L19-SIP-R (R=reduced) (from UniProt P01854 319-426) (antibody)

Immunoreactivity [1]: 69%
Substance: (3-(4-hydroxy-3-[131I]iodo-phenyl)-propionate)-L19-SIP (from UniProt P01854 319-426) (antibody)

Immunoreactivity [2]: > 90%
Immunoreactivity (I), % of the value before i.v. injection [3]: 100%
Immunoreactivity (I), % of the value before i.v. injection [4]: 95%
Immunoreactivity (I), % of the value before i.v. injection [5]: 100%
Immunoreactivity (I), % of the value before i.v. injection [6]: 95%
Immunoreactivity (I), % of the value before i.v. injection [7]: 100%
Immunoreactivity (I), % of the value before i.v. injection [8]: 100%
Substance: radioiodinated (125I) L19-IgG1 (from UniProt P01857 1-330) (antibody)

Further lines, the substance ahead of its results:

Substance: In-111-MX-DTPA-ε-HN(Lys)-L19-SIP (from UniProt P01854 319-426) (antibody)
Immunoreactivity [1]: 77.5%

Substance: Tc-99m-MAG2-ε-HN(Lys)-L19-SIP (from UniProt P01854 319-426) (antibody)
Immunoreactivity [1]: 81.1%

Substance: Lu-177-DOTA-C-Benzyl-p-NCS-ε-HN(Lys)-L19-SIP (from UniProt P01854 319-426) (antibody)
Immunoreactivity [1]: 73.4%

Substance: radioiodinated (125I) L19-SIP (from UniProt P01854 319-426) (antibody)
Immunoreactivity [2]: > 90%
Immunoreactivity (I), % of the value before i.v. injection [3]: 100%
Immunoreactivity (I), % of the value before i.v. injection [4]: 95%
Immunoreactivity (I), % of the value before i.v. injection [5]: 100%
Immunoreactivity (I), % of the value before i.v. injection [6]: 100%
Immunoreactivity (I), % of the value before i.v. injection [7]: 100%
Immunoreactivity (I), % of the value before i.v. injection [8]: 95%

Substance: Tc-99m-L19-SIP (from UniProt P01854 319-426) (antibody)
Immunoreactivity [1]: 91.4%

Substance: I-124-L19-SIP (from UniProt P01854 319-426) (antibody)
Immunoreactivity [1]: 86%

Substance: I-131-L19-SIP (from UniProt P01854 319-426) (antibody)
Immunoreactivity [9]: 76%
Immunoreactivity [10]: 78%

Substance: I-123-L19-SIP (from UniProt P01854 319-426) (antibody)
Immunoreactivity [1]: 84%

Substance: Y-88-MX-DTPA-ε-HN(Lys)-L19-SIP (from UniProt P01854 319-426) (antibody)
Immunoreactivity [1]: 70.5%

Substance: Re-188-L19-SIP (from UniProt P01854 319-426) (antibody)
Immunoreactivity [1]: 91.7%
